Test results reported in patent US12648964B2, “Chimeric Tim receptors and uses thereof” (CERO THERAPEUTICS HOLDINGS, INC., priority 2020, dated 2026).
“Also recorded” adds a separate entry of the source. Read-outs that look alike come from different tables or passages of the source.

Assays:
Kuramochi cells [1] = settings: 1.56 or 25 μM Niraparib, 48 hours, vs DMSO
Description: FIG. 7A: Flow cytometry measurement of surface PtdSer. Kuramochi cells were treated with 1.56 or 25 μM Niraparib or with equivalent volume of DMSO (control). 48 hours later samples were trypsinized and stained using a Tim4-Fc followed by a fluorescently-labeled secondary antibody to the Tim4-Fc. […] All data were collected via IncuCyte.
(§1) In ovarian tumors, poly (ADP-ribose) polymerase (PARP) inhibitors, such as Niraparib, are clinically approved drugs which target DNA damage response pathways. Responses are rarely complete, with relapse common after treatment. To induce Ptd-Ser exposure, BRCA-2 mutated Kuramochi cell line was treated with therapeutic doses of the PARP inhibitor Niraparib.

Kuramochi cells [2] = settings: BRCA-2 mutated Kuramochi cell line
Description: as §1

E7 TCR-T cells [3] = test: E7-specific T cell proliferation by CT Violet dye dilution after co-culture with E7 peptide-pulsed CER-T cells; assay type: cell-based; settings: for stimulation / proliferation responses of E7-specific T cells: CER-T pulsed with E7 peptides, CT Violet dilution after 6 days
Description: FIG. 1A: a schematic of pCTX247 and pCTX1107 chimeric Tim4 receptors and pCTX1107 T cells pulsed with E7 peptides and co-cultured with E7-specific T cells to evaluate their antigen presentation capacity. FIG. 1B: E7-specific proliferation responses were measured by CT Violet dye dilution after 6 days in the presence of autologous CER-T (TLR containing or non-containing CERs) pulsed with E7 peptides. […] All data collected by FACS. Cell tracing show E7 TCR-T cells using an anti-mouse TCRb. E7 TCR-T cells were labeled with CT Violet at the time of co-culture.
Chimeric Tim4 receptor-T cells were tested to determine whether they can capture and present soluble antigens and trigger activation and proliferation of recombinant E7-restricted T cell clones in a co-culture system. First expression of Tim4 was confirmed on transduced CER T cells by flow cytometry. Tim4 binding domain-CD28 transmembrane-CD28 signaling domain-CD3z signaling domain (CTX247) and Tim4 binding domain-CD28 signaling domain-CD3z signaling domain-TLR2 signaling domain (CTX1107) were stained for Tim4 and EGFR, a transduction marker encoded on each vector. […] E7 TCRs proliferate in response to APCs pulsed with E7 peptide through MHC class I. For autologous APCs, CD4+ and CD8+ chimeric Tim4 receptor T cell products transduced with different Tim-4 chimeric receptors were pulsed with a pool of 15-mer peptides containing 11-mer overlaps derived from the E7 protein from HPV16 or vehicle. Chimeric Tim4 receptor T cells were pulsed at 37° C. for 4 hrs with E7 peptides and tested for their capacity to trigger E7-specific activation and proliferation. E7-TCR cell surface activation marker responses were evaluated by flow cytometry 24 hours following co-culture with chimeric Tim4 receptor-T cell products. After an additional 5 days of co-culture, proliferative responses were assessed by Cell Trace (CT) Violet dilution. […]

E7 TCR-T cells [4] = test: E7 TCR-T cell activation markers CD25/CD69 after co-culture with E7 peptide-pulsed CER-T cells (flow cytometry); assay type: cell-based
Description: (§2) FIG. 2: T cells containing chimeric Tim4 receptors with a TLR intracellular signaling domain added to the CD3ζ signaling domain (and optionally a CD28 signaling domain) are strong stimulators of autologous E7-specific T cell responses. CER-T cells were pulsed with E7 peptide and tested for their capacity to trigger an autologous E7-specific T cell response. CD25, a T cell activation marker, was evaluated on E7 TCR-T cells, 24 hours after CER-T cells were pulsed with E7 peptides.
as §2, with “3:” for “2:”, “CD69, an early marker for” for “CD25, a”, “activation,” for “activation marker,”
Chimeric Tim4 receptor-T cells were tested to determine whether they can capture and present soluble antigens and trigger activation and proliferation of recombinant E7-restricted T cell clones in a co-culture system. First expression of Tim4 was confirmed on transduced CER T cells by flow cytometry. Tim4 binding domain-CD28 transmembrane-CD28 signaling domain-CD3z signaling domain (CTX247) and Tim4 binding domain-CD28 signaling domain-CD3z signaling domain-TLR2 signaling domain (CTX1107) were stained for Tim4 and EGFR, a transduction marker encoded on each vector. […] E7 TCRs proliferate in response to APCs pulsed with E7 peptide through MHC class I. For autologous APCs, CD4+ and CD8+ chimeric Tim4 receptor T cell products transduced with different Tim-4 chimeric receptors were pulsed with a pool of 15-mer peptides containing 11-mer overlaps derived from the E7 protein from HPV16 or vehicle. Chimeric Tim4 receptor T cells were pulsed at 37° C. for 4 hrs with E7 peptides and tested for their capacity to trigger E7-specific activation and proliferation. E7-TCR cell surface activation marker responses were evaluated by flow cytometry 24 hours following co-culture with chimeric Tim4 receptor-T cell products. After an additional 5 days of co-culture, proliferative responses were assessed by Cell Trace (CT) Violet dilution.
A higher frequency of E7-TCR containing T cells expressed both activation markers 24 hours after co-culture (FIG. 2).

phosphatidylserine = settings: cited from earlier work; for binding at High PtdSer: high phosphatidylserine density; for binding at Low PtdSer: low phosphatidylserine density
[5] = 24 hours after CER-T cells pulsed with E7 peptides

NC(=O)c1cccc2cn(-c3ccc([C@@H]4CCCNC4)cc3)nc12 [Niraparib]
surface PtdSer (membrane phospholipid symmetry) (Kuramochi cells [1]): elicits changes in membrane phospholipid symmetry, in a dose dependent manner | inhibition of growth of Kuramochi cells (Kuramochi cells [2]): effective in inhibiting growth

B1: pCTX247: Tim4 binding domain-CD28 transmembrane-CD28 signaling domain-CD3z signaling domain (protein)
chain: ETVVTEVLGHRVTLPCLYSSWSHNSNSMCWGKDQCPYSGCKEALIRTDGMRVTSRKSAKYRLQGTIPRGDVSLTILNPSESDSGVYCCRIEVPGWFNDVKINVRLNLQRASTTTHRTATTTTRRTTTTSPTTTRQMTTTPAALPTTVVTTPDLTTGTPLQMTTIAVFTTANTCLSLTPSTLPEEATGLLTPEPSKEGPILTAESETVLPSDSWSSVESTSADTVLLTSKESKVWDLPSTSHVSMWKTSDSVSSPQPGASDTAVPEQNKTTKTGQMDGIPMSMKNEMPISQFWVLVVVGGVLACYSLLVTVAFIIFWVRSKRSRLLHSDYMNMTPRRPGPTRKHYQPYAPPRDFAAYRSRVKFSRSADAPAYQQGQNQLYNELNLGRREEYDVLDKRRGRDPEMGGKPRRKNPQEGLYNELQKDKMAEAYSEIGMKGERRRGKGHDGLYQGLSTATKDTYDALHMQALPPR
stimulation / proliferation responses of E7-specific T cells (E7 TCR-T cells [3]): not stimulatory

B2: pCTX1107: Tim4 binding domain-CD28 signaling domain-CD3z signaling domain-TLR2 signaling domain (protein)
chain: ETVVTEVLGHRVTLPCLYSSWSHNSNSMCWGKDQCPYSGCKEALIRTDGMRVTSRKSAKYRLQGTIPRGDVSLTILNPSESDSGVYCCRIEVPGWFNDVKINVRLNLQRASTTTHRTATTTTRRTTTTSPTTTRQMTTTPAALPTTVVTTPDLTTGTPLQMTTIAVFTTANTCLSLTPSTLPEEATGLLTPEPSKEGPILTAESETVLPSDSWSSVESTSADTVLLTSKESKVWDLPSTSHVSMWKTSDSVSSPQPGASDTAVPEQNKTTKTGQMDGIPMSMKNEMPISQRSKRSRLLHSDYMNMTPRRPGPTRKHYQPYAPPRDFAAYRSRVKFSRSADAPAYQQGQNQLYNELNLGRREEYDVLDKRRGRDPEMGGKPRRKNPQEGLYNELQKDKMAEAYSEIGMKGERRRGKGHDGLYQGLSTATKDTYDALHMQALPPRHRFHGLWYMKMMWAWLQAKRKPRKAPSRNICYDAFVSYSERDAYWVENLMVQELENFNPPFKLCLHKRDFIPGKWIIDNIIDSIEKSHKTVFVLSENFVKSEWCKYELDFSHFRLFDENNDAAILILLEPIEKKAIPQRFCKLRKIMNTKTYLEWPMDEAQREGFWVNLRAAIKS
modifications: left off: large carriers
stimulation / proliferation responses of E7-specific T cells (E7 TCR-T cells [3]): stimulatory for E7-specific T cells; also recorded: triggered proliferation responses of E7-specific TCRs | percentage of dividing E7-TCR-T cells (E7 TCR-T cells [3]; by 6 days, controls 8%): 44% | CD25 on E7 TCR-T cells (E7-specific activation) (E7 TCR-T cells [4]; [5]): strong stimulator of E7-specific activation | CD69 on E7 TCR-T cells (E7-specific activation) (E7 TCR-T cells [4]; [5]): strong stimulator of E7-specific activation | CD25 and CD69 upregulation (E7-specific activation) (E7 TCR-T cells [4]; 24 hours after co-culture, flow cytometry): strong stimulatory of E7-specific activation | E7 TCR-T cell surface activation markers CD25 and CD69 upregulated (E7 TCR-T cells [4]; 24 hrs following co-culture, controls 23.1%): 41.2%

B3: Tim-4: T-cell immunoglobulin and mucin domain containing protein 4, phosphatidylserine receptor (protein, UniProt Q96H15 25-378, looked up)
T-cell immunoglobulin and …: ETVVTEVLGHRVTLPCLYSSWSHNSNSMCWGKDQCPYSGCKEALIRTDGMRVTSRKSAKYRLQGTIPRGDVSLTILNPSESDSGVYCCRIEVPGWFNDVKINVRLNLQRASTTTHRTATTTTRRTTTTSPTTTRQMTTTPAALPTTVVTTPDLTTGTPLQMTTIAVFTTANTCLSLTPSTLPEEATGLLTPEPSKEGPILTAESETVLPSDSWSSVESTSADTVLLTSKESKVWDLPSTSHVSMWKTSDSVSSPQPGASDTAVPEQNKTTKTGQMDGIPMSMKNEMPISQLLMIIAPSLGFVLFALFVAFLLRGKLMETYCSQKHTRLDYIGDSKNVLNDVQHGREDEDGLFTL
Cooperativity (phosphatidylserine): Yes | binding at High PtdSer (phosphatidylserine): Strong | binding at Low PtdSer (phosphatidylserine): Minimal | binding at Low PtdSer (phosphatidylserine; listed as Tim4 binding domain): binds minimally

B4: Tim-1: T-cell immunoglobulin and mucin domain containing protein 1, phosphatidylserine receptor (protein, UniProt Q96D42 21-364, looked up)
Hepatitis A virus cellular …: SVKVGGEAGPSVTLPCHYSGAVTSMCWNRGSCSLFTCQNGIVWTNGTHVTYRKDTRYKLLGDLSRRDVSLTIENTAVSDSGVYCCRVEHRGWFNDMKITVSLEIVPPKVTTTPIVTTVPTVTTVRTSTTVPTTTTVPMTTVPTTTVPTTMSIPTTTTVLTTMTVSTTTSVPTTTSIPTTTSVPVTTTVSTFVPPMPLPRQNHEPVATSPSSPQPAETHPTTLQGAIRREPTSSPLYSYTTDGNDTVTESSDGLWNNNQTQLFLEHSLLTANTTKGIYAGVCISVLVLLALLGVIIAKKYFFKKEVQQLSVSFSSLQIKALQNAVEKEVQAEDNIYIENSLYATD
binding at High PtdSer (phosphatidylserine): Strong | binding at Low PtdSer (phosphatidylserine): Moderate | binding at Low PtdSer (phosphatidylserine; listed as Tim1 binding domain): binds more strongly to a lower phosphatidylserine density | binding at Moderate PtdSer (phosphatidylserine; moderate phosphatidylserine density): Strong
